Data from patent US20210380663A1 (ACCELERON PHARMA, published 2021).
Where a chain is given by its changes, count along the chain named. Names and notes keep the numbering of the source. Where two headings read alike, the source gives them in different places. Blank lines part the entries; values can stand above or below the molecule they belong to.

Key:
[1] = target: T1, BMP9 (UniProt Q9UK05)
T1 sequence (looked up): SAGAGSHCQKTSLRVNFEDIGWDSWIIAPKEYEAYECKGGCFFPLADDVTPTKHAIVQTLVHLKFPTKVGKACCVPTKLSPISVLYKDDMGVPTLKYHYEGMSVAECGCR

[2] = target: T2, activin B (UniProt P09529)
T2 sequence (looked up): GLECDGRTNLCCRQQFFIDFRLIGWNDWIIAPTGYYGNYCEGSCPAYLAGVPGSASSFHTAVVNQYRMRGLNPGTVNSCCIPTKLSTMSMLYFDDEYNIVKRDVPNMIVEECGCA

[3] = target: T3, BMP10 (UniProt O95393)
T3 sequence (looked up): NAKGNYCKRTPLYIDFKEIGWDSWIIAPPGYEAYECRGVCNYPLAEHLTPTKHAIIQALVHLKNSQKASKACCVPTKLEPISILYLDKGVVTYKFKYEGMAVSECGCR

[4] = target: GDF8 (UniProt O14793)
[5] = target: T4, TGFβ2 (human) (UniProt P61812)
T4 sequence (looked up): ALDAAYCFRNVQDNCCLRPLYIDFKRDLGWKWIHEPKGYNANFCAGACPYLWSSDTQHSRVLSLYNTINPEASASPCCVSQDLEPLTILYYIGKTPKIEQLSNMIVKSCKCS

[6] = target: T5, TGFβ1 (human, UniProt P01137 279-390)
[7] = target: T6, GDF11 (UniProt O95390 299-407)
[8] = target: T7, activin A (UniProt P08476 311-426)
T7 sequence (looked up): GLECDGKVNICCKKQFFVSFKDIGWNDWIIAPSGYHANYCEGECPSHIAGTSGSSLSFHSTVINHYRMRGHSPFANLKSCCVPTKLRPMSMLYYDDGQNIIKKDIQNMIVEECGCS

[9] = target: T5, TGFβ1; remark: listed apart in the source
[10] = target: T8, TGFβ3 (human, UniProt P10600 301-412)
T8 sequence (looked up): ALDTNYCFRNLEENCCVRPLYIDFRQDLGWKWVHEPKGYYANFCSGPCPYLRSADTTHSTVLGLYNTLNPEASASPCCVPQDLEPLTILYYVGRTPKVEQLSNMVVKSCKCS

[11] = target: T8, TGFβ3; remark: listed apart in the source
[12] = target: T6, GDF11; test: cell-based or functional assay
[13] = target: T7, activin A; test: cell-based or functional assay
[14] = target: T5, TGFβ1; test: cell-based or functional assay
[15] = target: T8, TGFβ3; test: cell-based or functional assay
[16] = target: T5, TGFβ1; test: cell-based or functional assay; remark: listed apart in the source
[17] = target: T8, TGFβ3; test: cell-based or functional assay; remark: listed apart in the source

T6 sequence (O95390 299-407 limits assumed): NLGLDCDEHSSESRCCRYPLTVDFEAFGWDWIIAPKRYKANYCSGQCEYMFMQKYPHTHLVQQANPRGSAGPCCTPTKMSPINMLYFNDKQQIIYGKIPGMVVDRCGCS
T5 sequence (P01137 279-390 limits assumed): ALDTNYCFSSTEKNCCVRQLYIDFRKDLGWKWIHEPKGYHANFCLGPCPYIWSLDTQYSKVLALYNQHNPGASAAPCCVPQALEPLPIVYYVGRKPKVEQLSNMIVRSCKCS

B1: ActRIIB-Fc:TβRII-Fc heterodimer (Fc fusion, not shown: a dimerising Fc or GST)
chain 1: GRGEAETRECIYYNANWELERTNQSGLERCEGEQDKRLHCYASWRNSSGTIELVKKGCWLDDFNCYDRQECVATEENPQVYFCCCEGNFCNERFTHLPEAGGPEVTYEPPPTAPTGGGGSGGGGSGGGGSGGGGS
chain 2: TIPPHVQKSDVEMEAQKDEIICPSCNRTAHPLRHINNDMIVTDNNGAVKFPQLCKFCDVRFSTCDNQKSCMSNCSITSICEKPQEVCVAVWRKNDENITLETVCHDPKLPYHDFILEDAASPKCIMKEKKKPGETFFMCSCSSDECNDNIIFSEEYNTSNPDTGGGGSGGGGSGGGGSGGGGS
IC50; inhibition of BMP9 signalling, CAGA12 reporter gene assay [1]: > 20 µg/mL | IC50; inhibition of activin B signalling, CAGA12 reporter gene assay [2]: 0.64 nM | IC50; inhibition of BMP10 signalling, CAGA12 reporter gene assay [3]: 1.76 nM | IC50; inhibition of GDF8 signalling, CAGA12 reporter gene assay [4]: 8.16 nM | IC50; inhibition of TGFβ2 signalling, CAGA12 reporter gene assay [5]: > 20 µg/mL | IC50; inhibition of TGFβ1 signalling, CAGA12 reporter gene assay [6]: 0.348 nM | IC50; inhibition of GDF11 signalling, CAGA12 reporter gene assay [7]: 1.73 nM | IC50; inhibition of TGFβ3 signalling, CAGA12 reporter gene assay [11]: 0.31 nM | IC50; inhibition of activin A signalling, CAGA12 reporter gene assay [8]: 0.85 nM

B2: ActRIIB-Fc homodimer (Fc fusion)
ActRIIB-Fc chain: GRGEAETRECIYYNANWELERTNQSGLERCEGEQDKRLHCYASWRNSSGTIELVKKGCWLDDFNCYDRQECVATEENPQVYFCCCEGNFCNERFTHLPEAGGPEVTYEPPPTAPTGGGTHTCPPCPAPELLGGPSVFLFPPKPKDTLMISRTPEVTCVVVDVSHEDPEVKFNWYVDGVEVHNAKTKPREEQYNSTYRVVSVLTVLHQDWLNGKEYKCKVSNKALPVPIEKTISKAKGQPREPQVYTLPPSREEMTKNQVSLTCLVKGFYPSDIAVEWESNGQPENNYKTTPPVLDSDGSFFLYSKLTVDKSRWQQGNVFSCSVMHEALHNHYTQKSLSLSPGK
IC50; inhibition of BMP9 signalling, CAGA12 reporter gene assay [1]: 2 nM | IC50; inhibition of activin B signalling, CAGA12 reporter gene assay [2]: 0.07 nM | IC50; inhibition of BMP10 signalling, CAGA12 reporter gene assay [3]: 0.556 nM | IC50; inhibition of GDF8 signalling, CAGA12 reporter gene assay [4]: 0.83 nM | IC50; inhibition of TGFβ2 signalling, CAGA12 reporter gene assay [5]: > 20 µg/mL | IC50; inhibition of TGFβ1 signalling, CAGA12 reporter gene assay [6]: > 20 µg/mL | IC50; inhibition of GDF11 signalling, CAGA12 reporter gene assay [7]: 0.09 nM | IC50; inhibition of TGFβ3 signalling, CAGA12 reporter gene assay [11]: > 20 µg/mL | IC50; inhibition of activin A signalling, CAGA12 reporter gene assay [8]: 0.05 nM | IC50; inhibition of GDF11 signalling, CAGA12 reporter gene assay in A204 cells [12]: 0.135 nM | IC50; inhibition of activin A signalling, CAGA12 reporter gene assay in A204 cells [13]: 0.079 nM

B3: ActRIIB-Fc Single-Arm (Fc fusion)
ActRIIB-Fc chain: B2 ActRIIB-Fc chain with V226A, E252K, D295K
Fc chain without receptor domain: SNTKVDKRVTGGGTHTCPPCPAPELLGGPSVFLFPPKPKDTLMISRTPEVTCVVVDVSHEDPEVKFNWYVDGVEVHNAKTKPREEQYNSTYRVVSVLTVLHQDWLNGKEYKCKVSNKALPAPIEKTISKAKGQPREPQVYTLPPSREEMTKNQVSLTCLVKGFYPSDIAVEWESNGQPENNYDTTPPVLDSDGSFFLYSDLTVDKSRWQQGNVFSCSVMHEALHNHYTQKSLSLSPGK
IC50; inhibition of GDF11 signalling, CAGA12 reporter gene assay in A204 cells [12]: 2.61 nM | IC50; inhibition of activin A signalling, CAGA12 reporter gene assay in A204 cells [13]: 1.41 nM

B5: ActRIIB-Fc-(G4S)4G-TGFBRII + Fc1-(G4S)4G-TGFBRII (3-arm) (Fc fusion)
ActRIIB-Fc(knob)-(G4S)4G-TGFBRII chain: GASGRGEAETRECIYYNANWELERTNQSGLERCEGEQDKRLHCYASWRNSSGTIELVKKGCWLDDFNCYDRQECVATEENPQVYFCCCEGNFCNERFTHLPEAGGPEVTYEPPPTAPTGGGTHTCPPCPAPELLGGPSVFLFPPKPKDTLMISRTPEVTCVVVDVSHEDPEVKFNWYVDGVEVHNAKTKPREEQYNSTYRVVSVLTVLHQDWLNGKEYKCKVSNKALPAPIEKTISKAKGQPREPQVYTLPPCREEMTKNQVSLWCLVKGFYPSDIAVEWESNGQPENNYKTTPPVLDSDGSFFLYSKLTVDKSRWQQGNVFSCSVMHEALHNHYTQKSLSLSPGAGGGGSGGGGSGGGGSGGGGSGTIPPHVQKSDVEMEAQKDEIICPSCNRTAHPLRHINNDMIVTDNNGAVKFPQLCKFCDVRFSTCDNQKSCMSNCSITSICEKPQEVCVAVWRKNDENITLETVCHDPKLPYHDFILEDAASPKCIMKEKKKPGETFFMCSCSSDECNDNIIFSEEYNTSNPD
Fc1(hole)-(G4S)4G-TGFBRII chain: GASNTKVDKRVTGGGTHTCPPCPAPELLGGPSVFLFPPKPKDTLMISRTPEVTCVVVDVSHEDPEVKFNWYVDGVEVHNAKTKPREEQYNSTYRVVSVLTVLHQDWLNGKEYKCKVSNKALPAPIEKTISKAKGQPREPQVCTLPPSREEMTKNQVSLSCAVKGFYPSDIAVEWESNGQPENNYKTTPPVLDSDGSFFLVSKLTVDKSRWQQGNVFSCSVMHEALHNHYTQKSLSLSPGAGGGGSGGGGSGGGGSGGGGSGTIPPHVQKSDVEMEAQKDEIICPSCNRTAHPLRHINNDMIVTDNNGAVKFPQLCKFCDVRFSTCDNQKSCMSNCSITSICEKPQEVCVAVWRKNDENITLETVCHDPKLPYHDFILEDAASPKCIMKEKKKPGETFFMCSCSSDECNDNIIFSEEYNTSNPD
IC50; inhibition of TGFβ1 signalling, CAGA12 reporter gene assay in A549 cells [16]: 0.0201 nM | IC50; inhibition of GDF11 signalling, CAGA12 reporter gene assay in A204 cells [12]: 4.4 nM | IC50; inhibition of TGFβ3 signalling, CAGA12 reporter gene assay in A549 cells [17]: 0.016 nM | IC50; inhibition of activin A signalling, CAGA12 reporter gene assay in A204 cells [13]: 2.96 nM

Other lines, results leading:

IC50; inhibition of BMP9 signalling, CAGA12 reporter gene assay [1]: > 20 µg/mL | IC50; inhibition of activin B signalling, CAGA12 reporter gene assay [2]: > 20 µg/mL | IC50; inhibition of BMP10 signalling, CAGA12 reporter gene assay [3]: > 20 µg/mL | IC50; inhibition of GDF8 signalling, CAGA12 reporter gene assay [4]: > 20 µg/mL | IC50; inhibition of TGFβ2 signalling, CAGA12 reporter gene assay [5]: > 20 µg/mL | IC50; inhibition of TGFβ1 signalling, CAGA12 reporter gene assay [6]: 0.017 nM | IC50; inhibition of GDF11 signalling, CAGA12 reporter gene assay [7]: > 20 µg/mL | IC50; inhibition of activin A signalling, CAGA12 reporter gene assay [8]: > 20 µg/mL
Molecule: TβRII-Fc homodimer (Fc fusion)

IC50; inhibition of TGFβ1 signalling, CAGA12 reporter gene assay in A549 cells [9]: 0.143 nM | IC50; inhibition of TGFβ3 signalling, CAGA12 reporter gene assay in A549 cells [10]: 0.106 nM
Molecule: TGFBRII-(G4S)4-hFc dimer (Fc fusion)

CAGA12 reporter gene assay in A549 cells, inhibition relative to the TGFBRII-(G4S)4-hFc homodimer [14]: ~7 fold | CAGA12 reporter gene assay in A549 cells, inhibition relative to the TGFBRII-(G4S)4-hFc homodimer [15]: ~7 fold
B4: Fc1-(G4S)4G-TGFBRII, homodimer (Fc fusion)
chain: B5 Fc1(hole)-(G4S)4G-TGFBRII chain
